Experimental data as given in patent US20140155466.

What was measured:
Experiment in all cases: cell_activity
[1] = tested on: Human autoantibodies against alpha1-adrenergic receptor (alpha1-receptor AAB) (Homo sapiens); conditions: pulmonary hypertension patient 2, 5.17 without aptamer; 100 nM
[2] = tested on: Human autoantibodies against beta1-adrenergic receptor (beta1-receptor AAB, 2nd loop) (Homo sapiens)
[3] = tested on: Human autoantibodies against beta2-adrenergic receptor (beta2-receptor AAB) (Homo sapiens); conditions: 100 nM
[4] = tested on: Human autoantibodies against endothelin receptor type A (ETA-AAB) (Homo sapiens); conditions: pulmonary hypertension patient 2, -4.8 without aptamer
[5] = tested on: Human autoantibodies against muscarinic M2 receptor (M2-receptor AAB) (Homo sapiens); conditions: -3.67 without aptamer, 100 nM
[6] = tested on: Human alpha1/beta2-receptor autoantibodies (Alzheimer patient) (Homo sapiens); conditions: Alzheimer patient 1, 8.0 without aptamer; 100 nM
[7] = tested on: Human autoantibodies against PAR receptor (PAR-receptor AAB) (Homo sapiens); conditions: Raynaud patient 1, 7.33 without aptamer; 100 nM
[8] = tested on: Human autoantibodies against angiotensin II AT1 receptor (AT1-receptor AAB) (Homo sapiens); conditions: malignant hypertension, 7.83 without aptamer; kidney transplant 6.17 to 0.17; 100 nM
[9] = tested on: Human autoantibodies against beta1-adrenergic receptor (beta1-receptor AAB, 1st loop) (Homo sapiens); conditions: DCM patient 1, 6.33 without aptamer; 100 nM

Q: Which activity (delta beats/15 sec) [1] does the source give for “CGCCTAGGTTGGGTAGGGTGGTGGCG [NU172 (ARC2172)]” here?
A: 2

Q: And the activity (delta beats/15 sec) ([2]; peripartum cardiomyopathy, 6.33 without aptamer, 100 nM, partial)?
A: 4

Q: What about the activity (delta beats/15 sec) ([3]; glaucoma patient 1, 7.33 without aptamer, Chagas megacolon patient 6.17 to 2.0) of the same sequence?
A: 5.33

Q: What about the activity (delta beats/15 sec) ([4]; sign as printed) of the same sequence?
A: 2

Q: And the activity (delta beats/15 sec) ([5]; sign as printed)?
A: 3

Q: What does the source list for “GGTTGGTGTGGTTGG [3'-dT cap thrombin-aptamer]”?
A: activity (delta beats/15 sec) ([2]; 3'-dT cap, DCM, 6.0 without aptamer, 100 nM): 0; activity (delta beats/15 sec) ([3]; 3'-dT cap, Alzheimer, 5.17 without aptamer): 0

Q: “GGTTGGTGTGGTTGG [5'-FITC-thrombin-aptamer]” was tested. Which activity (% neutralization) ([2]; loop not stated, 100 nM FITC-aptamer) did it give?
A: 50

Q: For “GGTTGGTGTGGTTGG [thrombin-aptamer ARC183]”, which activity (delta beats/15 sec) [6] is on record?
A: 0

Q: And the activity (delta beats/15 sec) [7]?
A: 0.17

Q: And the activity (delta beats/15 sec) [1]?
A: 0.33

Q: And the activity (delta beats/15 sec) [8]?
A: 0.67

Q: And the activity (delta beats/15 sec) [9]?
A: -0.17

Q: What about the activity (delta beats/15 sec) ([2]; DCM patient 1, 5.33 without aptamer, 100 nM aptamer, rat cardiomyocyte bioassay) of the same sequence?
A: 0.17

Q: And the activity (delta beats/15 sec) ([3]; glaucoma patient 1, 7.33 without aptamer)?
A: 0.33

Q: What about the activity (delta beats/15 sec) ([4]; 100 nM) of the same sequence?
A: 0.33

Q: And the activity (delta beats/15 sec) ([5]; Chagas cardiomyopathy)?
A: 0.5
